Among the data in article PMC3302219 are FRET50 values, retold here.

Common to all, as to assay: FRET or BRET
What all share (conditions): remark: other sources report otherwise
For orientation: BRET reads energy transfer from a luciferase to a nearby fluorophore.

Experiment [1] deals with T1, CXCR4 fused to CFP (CXCR4-C) or to YFP (CXCR4-Y) (human), P61073.
T1 chain: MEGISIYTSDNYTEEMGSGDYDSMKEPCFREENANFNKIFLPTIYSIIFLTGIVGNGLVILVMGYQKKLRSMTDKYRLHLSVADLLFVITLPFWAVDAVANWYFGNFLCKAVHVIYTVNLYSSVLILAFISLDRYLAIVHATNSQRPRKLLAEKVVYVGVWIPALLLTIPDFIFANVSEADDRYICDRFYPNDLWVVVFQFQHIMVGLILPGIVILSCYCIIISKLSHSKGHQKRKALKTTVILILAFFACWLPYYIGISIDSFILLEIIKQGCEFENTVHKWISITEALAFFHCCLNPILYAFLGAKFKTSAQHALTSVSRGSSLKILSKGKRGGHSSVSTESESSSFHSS

Experiment [2] deals with T1, CXCR4 fused to CFP (CXCR4-C) or to YFP ….
Experiment [3] shares this target.

B1: CXCR4 fused to CFP (CXCR4-C) or to YFP (CXCR4-Y), P61073 1-352 (receptor)
chain: MEGISIYTSDNYTEEMGSGDYDSMKEPCFREENANFNKIFLPTIYSIIFLTGIVGNGLVILVMGYQKKLRSMTDKYRLHLSVADLLFVITLPFWAVDAVANWYFGNFLCKAVHVIYTVNLYSSVLILAFISLDRYLAIVHATNSQRPRKLLAEKVVYVGVWIPALLLTIPDFIFANVSEADDRYICDRFYPNDLWVVVFQFQHIMVGLILPGIVILSCYCIIISKLSHSKGHQKRKALKTTVILILAFFACWLPYYIGISIDSFILLEIIKQGCEFENTVHKWISITEALAFFHCCLNPILYAFLGAKFKTSAQHALTSVSRGSSLKILSKGKRGGHSSVSTESESSSFHSS
Turning to B1, the FRET50 in experiment [1] worked out at 1.55; in experiment [2], 1.61; in experiment [3], 1.27.
